Assay results taken from patent US20100254992A1.

Biological target: HuMCP-1-His6 Mutant-6 (66D → 66K) (human) (UniProt P13500)
Assay: Biacore, CNTO 888 captured, MCP-1-His6 in solution

HuMCP-1-His6 Mutant-6 (66D → 66K) (human), sequence (P13500 other isoform, or with tags, fused parts or gaps mutant, form in doubt): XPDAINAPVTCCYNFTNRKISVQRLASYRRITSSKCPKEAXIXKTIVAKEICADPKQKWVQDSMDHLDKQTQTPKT

Kd: 0.037 nM | koff: 0.000186 s⁻¹ | kon: 5.09e+06 M⁻¹ s⁻¹
Substance: CNTO 888 (antibody)
